{"source": "the supplement of paper PMC9112550", "about": "“Optimization of the antimicrobial peptide Bac7 by deep mutational scanning” (BMC Biology, 2022);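 also: peptides expressed intracellularly from a pBAD plasmid library in pooled LB shake-flask culture, induced with 0.3% L-arabinose, DNA abundance read by NGS, three biological replicates, DESeq2 with apeglm shrinkage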"}
{"system": "Escherichia coli TOP10", "assay": "shrunken log2 fold change of peptide-encoding DNA abundance (4.5 h post-induction vs induction); higher = less antimicrobial activity (less host growth inhibition)", "settings": "time post-induction: 4.5 h; library: site-saturation at positions 5, 18, 19, 20"}
{"sequence": "RRIRPRPPRLPRPRPRPAYQPRP", "shrunken log2 fold change": -0.0181}
{"sequence": "RRIRERPPRLPRPRPRPIHYPRP", "shrunken log2 fold change": -0.0107}
{"sequence": "RRIRCRPPRLPRPRPRPIMWPRP", "shrunken log2 fold change": -0.123}
{"sequence": "RRIRPRPPRLPRPRPRPCIKPRP", "shrunken log2 fold change": -0.441}
{"sequence": "RRIRCRPPRLPRPRPRPPIYPRP", "shrunken log2 fold change": -0.253}
{"sequence": "RRIRGRPPRLPRPRPRPMQYPRP", "shrunken log2 fold change": -0.21}
{"sequence": "RRIRNRPPRLPRPRPRPNCVPRP", "shrunken log2 fold change": 0.393}
{"sequence": "RRIRGRPPRLPRPRPRPALPPRP", "shrunken log2 fold change": 0.696}
{"sequence": "RRIRGRPPRLPRPRPRPCYIPRP", "shrunken log2 fold change": 0.0972}
{"sequence": "RRIRRRPPRLPRPRPRPCPIPRP", "shrunken log2 fold change": 0.0892}
{"sequence": "RRIRHRPPRLPRPRPRPGEFPRP", "shrunken log2 fold change": -0.00759}
{"sequence": "RRIRKRPPRLPRPRPRPNTNPRP", "shrunken log2 fold change": -0.0445}
{"sequence": "RRIRPRPPRLPRPRPRPCDFPRP", "shrunken log2 fold change": -0.179}
{"sequence": "RRIRKRPPRLPRPRPRPQTYPRP", "shrunken log2 fold change": -0.021}
{"sequence": "RRIRDRPPRLPRPRPRPGRCPRP", "shrunken log2 fold change": 0.53}
{"sequence": "RRIRYRPPRLPRPRPRPYFNPRP", "shrunken log2 fold change": -1.33}
{"sequence": "RRIRWRPPRLPRPRPRPGRQPRP", "shrunken log2 fold change": -0.00663}
{"sequence": "RRIRMRPPRLPRPRPRPQMYPRP", "shrunken log2 fold change": -0.24}
{"sequence": "RRIRVRPPRLPRPRPRPCDDPRP", "shrunken log2 fold change": -0.0369}
{"sequence": "RRIRRRPPRLPRPRPRPTLMPRP", "shrunken log2 fold change": 0.581}
{"sequence": "RRIRGRPPRLPRPRPRPWHHPRP", "shrunken log2 fold change": -0.26}
{"sequence": "RRIRFRPPRLPRPRPRPFDHPRP", "shrunken log2 fold change": -0.281}
{"sequence": "RRIRGRPPRLPRPRPRPACYPRP", "shrunken log2 fold change": 0.896}
{"sequence": "RRIRFRPPRLPRPRPRPANIPRP", "shrunken log2 fold change": -0.0774}
{"sequence": "RRIRKRPPRLPRPRPRPFMPPRP", "shrunken log2 fold change": -0.0694}
{"sequence": "RRIRMRPPRLPRPRPRPHISPRP", "shrunken log2 fold change": -0.0571}
{"sequence": "RRIRVRPPRLPRPRPRPNKFPRP", "shrunken log2 fold change": -0.255}
{"sequence": "RRIRQRPPRLPRPRPRPLNWPRP", "shrunken log2 fold change": -0.133}
{"sequence": "RRIRMRPPRLPRPRPRPLWVPRP", "shrunken log2 fold change": 0.0224}
{"sequence": "RRIRRRPPRLPRPRPRPSFCPRP", "shrunken log2 fold change": -0.00369}
{"sequence": "RRIRYRPPRLPRPRPRPWHHPRP", "shrunken log2 fold change": -0.271}
{"sequence": "RRIRHRPPRLPRPRPRPQWGPRP", "shrunken log2 fold change": -0.149}
{"sequence": "RRIRARPPRLPRPRPRPTAGPRP", "shrunken log2 fold change": 0.902}
{"sequence": "RRIRMRPPRLPRPRPRPPTTPRP", "shrunken log2 fold change": 0.991}
{"sequence": "RRIRNRPPRLPRPRPRPTDIPRP", "shrunken log2 fold change": -0.296}
{"sequence": "RRIRDRPPRLPRPRPRPDTMPRP", "shrunken log2 fold change": 0.373}
{"sequence": "RRIRGRPPRLPRPRPRPWGHPRP", "shrunken log2 fold change": 0.152}
{"sequence": "RRIRRRPPRLPRPRPRPNWWPRP", "shrunken log2 fold change": 1.05}
{"sequence": "RRIRLRPPRLPRPRPRPDKCPRP", "shrunken log2 fold change": -0.0114}
{"sequence": "RRIRKRPPRLPRPRPRPMKKPRP", "shrunken log2 fold change": 0.172}
{"sequence": "RRIRSRPPRLPRPRPRPEYAPRP", "shrunken log2 fold change": 0.496}
{"sequence": "RRIRIRPPRLPRPRPRPFHIPRP", "shrunken log2 fold change": -0.127}
{"sequence": "RRIRKRPPRLPRPRPRPPPTPRP", "shrunken log2 fold change": 1.11}
{"sequence": "RRIRRRPPRLPRPRPRPCCTPRP", "shrunken log2 fold change": -0.0151}
{"sequence": "RRIRDRPPRLPRPRPRPLDLPRP", "shrunken log2 fold change": -0.116}
{"sequence": "RRIRRRPPRLPRPRPRPDHNPRP", "shrunken log2 fold change": 0.121}
{"sequence": "RRIRQRPPRLPRPRPRPSFPPRP", "shrunken log2 fold change": -0.125}
{"sequence": "RRIRRRPPRLPRPRPRPFTNPRP", "shrunken log2 fold change": 0.103}
{"sequence": "RRIRRRPPRLPRPRPRPPMNPRP", "shrunken log2 fold change": 0.172}
{"sequence": "RRIRNRPPRLPRPRPRPKRAPRP", "shrunken log2 fold change": 0.146}
{"sequence": "RRIRLRPPRLPRPRPRPCGTPRP", "shrunken log2 fold change": -0.0819}
{"sequence": "RRIRERPPRLPRPRPRPRLKPRP", "shrunken log2 fold change": -0.0205}
{"sequence": "RRIRKRPPRLPRPRPRPVPVPRP", "shrunken log2 fold change": 0.253}
{"sequence": "RRIRDRPPRLPRPRPRPAPWPRP", "shrunken log2 fold change": 0.226}
{"sequence": "RRIRMRPPRLPRPRPRPEENPRP", "shrunken log2 fold change": 3.95}
{"sequence": "RRIRVRPPRLPRPRPRPSWSPRP", "shrunken log2 fold change": 0.0478}
{"sequence": "RRIRLRPPRLPRPRPRPSGVPRP", "shrunken log2 fold change": -0.0863}
{"sequence": "RRIRDRPPRLPRPRPRPFNLPRP", "shrunken log2 fold change": -0.176}
{"sequence": "RRIRERPPRLPRPRPRPCVEPRP", "shrunken log2 fold change": -0.11}
{"sequence": "RRIRKRPPRLPRPRPRPFQQPRP", "shrunken log2 fold change": 0.202}
{"sequence": "RRIRFRPPRLPRPRPRPESNPRP", "shrunken log2 fold change": 0.224}
{"sequence": "RRIRERPPRLPRPRPRPTCDPRP", "shrunken log2 fold change": 0.158}
{"sequence": "RRIRERPPRLPRPRPRPQSIPRP", "shrunken log2 fold change": -2.26}
{"sequence": "RRIRARPPRLPRPRPRPYEIPRP", "shrunken log2 fold change": -0.059}
{"sequence": "RRIRIRPPRLPRPRPRPSVIPRP", "shrunken log2 fold change": -0.661}
{"sequence": "RRIRSRPPRLPRPRPRPCIKPRP", "shrunken log2 fold change": -0.0801}
{"sequence": "RRIRYRPPRLPRPRPRPHHWPRP", "shrunken log2 fold change": -0.892}
{"sequence": "RRIRDRPPRLPRPRPRPFLHPRP", "shrunken log2 fold change": 0.204}
{"sequence": "RRIRWRPPRLPRPRPRPMCPPRP", "shrunken log2 fold change": -0.232}
{"sequence": "RRIRPRPPRLPRPRPRPTMIPRP", "shrunken log2 fold change": -0.239}
{"sequence": "RRIRTRPPRLPRPRPRPTPAPRP", "shrunken log2 fold change": 0.57}
{"sequence": "RRIRQRPPRLPRPRPRPKHEPRP", "shrunken log2 fold change": 0.164}
{"sequence": "RRIRQRPPRLPRPRPRPSHEPRP", "shrunken log2 fold change": -0.0209}
{"sequence": "RRIRLRPPRLPRPRPRPWFIPRP", "shrunken log2 fold change": -0.738}
{"sequence": "RRIRNRPPRLPRPRPRPDCPPRP", "shrunken log2 fold change": -0.031}
{"sequence": "RRIRWRPPRLPRPRPRPFYQPRP", "shrunken log2 fold change": -0.0811}
{"sequence": "RRIRCRPPRLPRPRPRPCVAPRP", "shrunken log2 fold change": 0.178}
{"sequence": "RRIRLRPPRLPRPRPRPTFMPRP", "shrunken log2 fold change": -0.305}
{"sequence": "RRIRKRPPRLPRPRPRPETFPRP", "shrunken log2 fold change": -0.00962}
{"sequence": "RRIRHRPPRLPRPRPRPWLHPRP", "shrunken log2 fold change": -0.00987}
{"sequence": "RRIRLRPPRLPRPRPRPYASPRP", "shrunken log2 fold change": 0.000498}
{"sequence": "RRIRTRPPRLPRPRPRPTKFPRP", "shrunken log2 fold change": -0.638}
{"sequence": "RRIRVRPPRLPRPRPRPYQAPRP", "shrunken log2 fold change": -0.293}
{"sequence": "RRIRQRPPRLPRPRPRPTDWPRP", "shrunken log2 fold change": 0.0907}
{"sequence": "RRIRYRPPRLPRPRPRPHTMPRP", "shrunken log2 fold change": -0.604}
{"sequence": "RRIRKRPPRLPRPRPRPVATPRP", "shrunken log2 fold change": 0.635}
{"sequence": "RRIRPRPPRLPRPRPRPVVKPRP", "shrunken log2 fold change": -0.181}
{"sequence": "RRIRLRPPRLPRPRPRPFIIPRP", "shrunken log2 fold change": -0.271}
{"sequence": "RRIRYRPPRLPRPRPRPSDIPRP", "shrunken log2 fold change": -0.0657}
{"sequence": "RRIRIRPPRLPRPRPRPVDGPRP", "shrunken log2 fold change": -0.169}
{"sequence": "RRIRHRPPRLPRPRPRPDPYPRP", "shrunken log2 fold change": -0.126}
